Experimental data: the supplement of paper PMC9170038

System: MS2 coat protein
Assay: apparent KD of MS2 coat protein; designed switch direction (-1 OFF switch, 1 ON switch): 1; higher = weaker reporter binding
Summary of the method: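 On Illumina chips, designed RNA switches with common flanks were made by stalled E. coli RNA polymerase. Titrations with SNAP-549-labelled MS2 coat protein, doubling from 0.7 or 1.5 nM to 3 µM, were done with no input, with 200 uM small-molecule ligand, or with an oligonucleotide input. Apparent KD is the median per design over clusters, from curve fits of normalised cluster fluorescence.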

[1] = Eterna round: R95, input ligand: FMN 200 uM
[2] = Eterna round: R95, input ligand: microRNA oligo, concentration not stated
[3] = Eterna round: R95, input ligand: none
[4] = input ligand: microRNA oligo, concentration not stated

Sequence	apparent KD of MS2 coat protein [1] [nM]	apparent KD of MS2 coat protein [2] [nM]	apparent KD of MS2 coat protein [3] [nM]	apparent KD of MS2 coat protein (input ligand: FMN 200 uM) [nM]	apparent KD of MS2 coat protein [4] [nM]	apparent KD of MS2 coat protein (input ligand: none) [nM]
AGAGAACAUGAGGAUCACCCAUGUAAGAGAAGUGUAGGAUAUGUGAGGAGCAGAGGAGGAACAGAAGGACAUGGAG [JR_SS!_Sub072] (puzzle: Same State 1)	34.6	35.3	53.8	–	–	–
AUUGCUUACGCAGGAUAUGAUGUGGAAACUGCGUCAGAAGGGUGAACAGAAUCGUUGCAAGAAGACAUGAGGAUCACCCAUGUC [SameState NG1 #97] (Eterna round: R96, puzzle: Same State NG 1)	–	–	–	42	34.9	39
GUGGCCUAGGCACAGGAUAUGUUGCUCGUAACAUGAGGAUCACCCAUGUGCCUAUGAGAUUUAAUGCAGAAGGGUGCACGCCACG [Edbeso] (Eterna round: R96, puzzle: Same State 2)	–	–	–	14.3	123	139
CCGCGGGUAUCACAGGAUAUACUCAUAAUUACAUGAGGAUCACCCAUGUGACGGAAUUCCGGUGCGUAGAAGGGUGAUGGACCGC [Onquorbe] (puzzle: Same State 2)	19.3	52.1	65.7	–	–	–
AGCUAGUACCGAGGAUAUACAUACAUGAGGAUCACCCAUGUAUACAUGAAUAUAUGAGACUACAUGUAGAAGGCGGUACUAGCA [Mat - Same State NG 2 - JL mod - D46] (Eterna round: R96, puzzle: Same State NG 2)	–	–	–	16.2	42	60.5
GCAGUACACGCAGAGGAUAUGUCGGUAACGACAUGAGGAUCACCCAUGUGUACGGAAGUACUCAGACAGAAGGCUGUGUACUGCU [Same State 2 - Hyphema v.3] (puzzle: Same State 2)	19.4	79.1	96.2	–	–	–
AUGGAGACCGGAGGAUAUGGACCAACAAUCGGUCCAGAAGGCUGCCCAUGGUAUACAUGAGGAUCACCCAUGUGGCCGCGGAGA [Eternabot solution 13] (Eterna round: R96, puzzle: Same State NG 1)	–	–	–	65.8	69.2	102
AUUAUUUAUGCAGGAUAUGAUUAACAUGAGGAUCACCCAUGUGGUGUUGUGAGUAAGGAGAGUGAUCAGAAGGGCAUUUCUUUU [JMF's solution 49] (Eterna round: R96, puzzle: Same State NG 2)	–	–	–	596	315	492
UUGCGGGCUUGAGGAUAUUGAGUACAUAUGUUUAACAUGAGGAUCACCCAUGUGGGUUGCGGUAUCGAGAAGGUAGCUUCCUGC [salish99_SSNG2_r04_812] (Eterna round: R96, puzzle: Same State NG 2)	–	–	–	76.3	83.6	79.1
CAGCUCGUGUGAGGAUAUGCCGCCGUUUCGGCUGCAGAAGGUGCUACGUUACAUGAGGAUCACCCAUGUCUCUGUUGUUUCGUG [salish99_SSNG1_r04_963] (Eterna round: R96, puzzle: Same State NG 1)	–	–	–	20.8	17.9	23.2
AAGAAACAUGAGGAUCACCCAUGUGAGAAUAUGGGAGGAUAUACAAGGACGUAAGUCAAGGUAGAAGGCCUAAGAA [Mat - Same State 1 - Meechl mod - D139] (Eterna round: R96, puzzle: Same State 1)	–	–	–	–	143	–
AUUAUUUAUGCAGGAUAUGAUUAACAUGAGGAUCACCCAUGUGGUGUUGUGAGUAAGGAGAGUGAUCAGAAGGGCAUUUUUUCU [JMF's solution 55] (Eterna round: R96, puzzle: Same State NG 2)	–	–	–	460	361	490
GAGAGACAUGAGGAUCACCCAUGUAGGAGAAGACAAGGAUAUGUAGGAGAAGGAGAAGGAACAGAAGGUGUGGGAG [JR_SS1_Sub051] (puzzle: Same State 1)	57.9	96.6	109	–	–	–
AUAGUUAGCGAAGGAUAUGGGAAAGGAAGUGUACCAGAAGGUCGGCUACUGGGCUUACAUGAGGAUCACCCAUGUCCCGGUAGC [PowerStrip SSNG 1.13] (Eterna round: R96, puzzle: Same State NG 1)	–	–	–	10.1	9.15	12.2
GAAGAACAUGAGGAUCACCCAUGUAAGCGGAAGCUAGGAUAUGCGGGAAAGAAAAGAGAAGCAGAAGGAGUAGGAA [JR_SS1_Sub028] (puzzle: Same State 1)	33	44.7	68.2	–	–	–
UGGCUCAGAGCAGGAUAUAUGUCUCGAGCUUCGGCUCGAGACAUGAGGAUCACCCAUGUAAUAACAUAGAAGGGCUCUGAGCCA [SSNG2/1-B2] (Eterna round: R96, puzzle: Same State NG 2)	–	–	–	16.3	41.7	74.7
UUAAUGAAGUAAGGAUAUACAUGAGGAUCACUCGUAGAAGGUACUAUACAUGAGGAUCACCCAUGUGCCGGUCAGAAGACUGGA [Mat - Same State NG 1 - JL mod - D5] (Eterna round: R96, puzzle: Same State NG 1)	–	–	–	755	534	723
AUAAAACAUGAGGAUCACCCAUGUCAACAAAGUCGAGGAUAUGGGCAUAUAAAAUAAGAACCAGAAGGCGAAUAAU [salish99_ss1_r3_026] (puzzle: Same State 1)	32.2	265	230	–	–	–
GUAGCAUACCGAGGAUAUUCAUAUAAUACAUGAGGAUCACCCAUGUUAUAUAGGCGAAAGCCUUGGGAGAAGGCGGAAUGCUAC [Xeonanis - 20 Mod65] (Eterna round: R96, puzzle: Same State NG 2)	–	–	–	–	10.9	–
AAAGAAAAACUAGAGGAUAUCCGAGUGGUAACAUGAGGAUCACCCAUGUGAUGAAAGGAACAUGAGGAGAAGGCUAGAAGAAAAA [JL Nando mod 8] (Eterna round: R96, puzzle: Same State 2)	–	–	–	20.6	47.6	56.5
GCUACCAAUGAAGCCUACAUGAGGAUCACCCAUGUAUGUAGGCAGGAUAUCGAUUGCAAAGCGAUCGAGAAGGGCUUAGGUAGC [Mat - Same State NG 3 - JL Mod - D91] (Eterna round: R96, puzzle: Same State NG 3)	–	–	–	35.9	79.6	95.8
GUGCAACCGUGUGAGGAUAUCGGUGAUCAGACAUGAGGAUCACCCAUGUCCGAAGCUCGGAUCUCCGAGAAGGCGCACAGUUGCA [Same State 2 - Mod of Erisin v.6] (puzzle: Same State 2)	92.8	232	296	–	–	–
UGGCUGGUGCUAGGAUAUGCAUGAGGCCUCCUCGUAGAAGGAGCACGACAUGAGGAUCACCCAUGUGGCCGUCCGUGGACGGCU [salish99_SSNG1_r04_014] (Eterna round: R96, puzzle: Same State NG 1)	–	–	–	45.4	44.9	56.1
GAGAGAGGAAGCGAGGAUAUCGUGUUGAGUACAUGAGGAUCACCCAUGUUGUAGGUAGAGGUAGGCGAGAAGGCGCAGGAGAGGU [JR_SS2_Sub098] (puzzle: Same State 2)	106	48.8	122	–	–	–
AGGAUAACACAUGAGGAUCACCCAUGUAUUAUUAUUACAAGCUUUUUGCUCGUUUUUAAUAAUACAUGUGUUAUUUU [Default title] (puzzle: Sensor for hsa-mir-208a version 2)	88.2	88.7	133	–	–	–
UUGAAGAACAUAGGAUAUUGAAUACAUAUGUUUAACAUGAGGAUCACCCAUGUGGGUUGCGGUAUCGAGAAGGAUGAAUAAAAG [Mat - Same State NG 2 - JL mod - D15] (Eterna round: R96, puzzle: Same State NG 2)	–	–	–	328	259	256
UUGUUUGGUAAAAUACAUGAGGAUCACCCAUGUUAUGGUGCAGAGGAUAUGCAUGUUUGAUUGUAGCAGAAGGCUGUUUGUUGU [JR_SSNG3_Sub035] (Eterna round: R96, puzzle: Same State NG 3)	–	–	–	41.5	29.7	42.5
